For 78 substances, abundance fitness results are on record in the Human Domainome abundance scans (Beltran et al. 2025).

± gives the uncertainty stated by the source.

The data set can be described thus: abundance fitness (aPCA) (normalised: wild type 0, dead -1); higher = more abundant; growth selection in yeast, the domain comes from the species named. The following applies: Homo sapiens.
In turn, “Heterogeneous nuclear ribonucleoprotein U-like protein 2 A30M, Q1KMD3” registered an abundance fitness of 0.067 ± 0.084.

As for “Heterogeneous nuclear ribonucleoprotein U-like protein 2 A39E, Q1KMD3”, the abundance fitness was -0.015 ± 0.064. Consider “Heterogeneous nuclear ribonucleoprotein U-like protein 2 D21S, Q1KMD3”, for which the abundance fitness was -0.165 ± 0.066.

“Heterogeneous nuclear ribonucleoprotein U-like protein 2 E35A, Q1KMD3” registered an abundance fitness of 0.036 ± 0.052. Turning to “Heterogeneous nuclear ribonucleoprotein U-like protein 2 Q16K, Q1KMD3”, the abundance fitness came to 0.049 ± 0.092. The substance “Heterogeneous nuclear ribonucleoprotein U-like protein 2 Q31D, Q1KMD3” gave an abundance fitness of -0.194 ± 0.11. “Heterogeneous nuclear ribonucleoprotein U-like protein 2 S13D, Q1KMD3” yielded an abundance fitness of 0.114 ± 0.067.

On to “Heterogeneous nuclear ribonucleoprotein U-like protein 2 S22D, Q1KMD3”, for which the abundance fitness came out at 0.187 ± 0.09. In the case of “Heterogeneous nuclear ribonucleoprotein U-like protein 2 V27A, Q1KMD3”, the abundance fitness was 0.131 ± 0.053. Take “NEDD4-like E3 ubiquitin-protein ligase WWP2 A445C, O00308”: the abundance fitness stood at 0.056 ± 0.03. Next, “NEDD4-like E3 ubiquitin-protein ligase WWP2 A445D, O00308”: 0.121 ± 0.078; “NEDD4-like E3 ubiquitin-protein ligase WWP2 A445E, O00308”: 0.025 ± 0.05. Next, “NEDD4-like E3 ubiquitin-protein ligase WWP2 A445F, O00308”: 0.007 ± 0.035; “NEDD4-like E3 ubiquitin-protein ligase WWP2 A445H, O00308”: 0.069 ± 0.081. “NEDD4-like E3 ubiquitin-protein ligase WWP2 A445I, O00308”: the abundance fitness is -0.016 ± 0.049. With “NEDD4-like E3 ubiquitin-protein ligase WWP2 A445K, O00308”, the abundance fitness was -0.01 ± 0.074.

In the case of “NEDD4-like E3 ubiquitin-protein ligase WWP2 A445L, O00308”, the abundance fitness amounted to 0 ± 0.039. The substance “NEDD4-like E3 ubiquitin-protein ligase WWP2 A445M, O00308” yielded an abundance fitness of -0.073 ± 0.052. As to “NEDD4-like E3 ubiquitin-protein ligase WWP2 A445N, O00308”, the abundance fitness was determined as 0.103 ± 0.073. As to “NEDD4-like E3 ubiquitin-protein ligase WWP2 A445P, O00308”, the abundance fitness was -0.14 ± 0.07. The substance “NEDD4-like E3 ubiquitin-protein ligase WWP2 A445Q, O00308” yielded an abundance fitness of 0.031 ± 0.049. In turn, “NEDD4-like E3 ubiquitin-protein ligase WWP2 A445R, O00308” registered an abundance fitness of 0.077 ± 0.039. Next, “NEDD4-like E3 ubiquitin-protein ligase WWP2 A445S, O00308”: 0.04 ± 0.048; “NEDD4-like E3 ubiquitin-protein ligase WWP2 A445T, O00308”: -0.211 ± 0.073. “NEDD4-like E3 ubiquitin-protein ligase WWP2 A445V, O00308” displayed an abundance fitness of -0.001 ± 0.06. Consider “NEDD4-like E3 ubiquitin-protein ligase WWP2 A445W, O00308”, for which the abundance fitness was -0.074 ± 0.062.

For the substance “NEDD4-like E3 ubiquitin-protein ligase WWP2 A445Y, O00308”, the abundance fitness was -0.002 ± 0.048. “NEDD4-like E3 ubiquitin-protein ligase WWP2 A490C, O00308” yielded an abundance fitness of -0.01 ± 0.051.

In the case of “NEDD4-like E3 ubiquitin-protein ligase WWP2 A490D, O00308”, the abundance fitness was 0.001 ± 0.061. “NEDD4-like E3 ubiquitin-protein ligase WWP2 A490E, O00308” came in with an abundance fitness of 0.024 ± 0.062. Regarding “NEDD4-like E3 ubiquitin-protein ligase WWP2 A490F, O00308”, the abundance fitness was -0.081 ± 0.051.

“NEDD4-like E3 ubiquitin-protein ligase WWP2 A490G, O00308” displayed an abundance fitness of -0.007 ± 0.039. In the case of “NEDD4-like E3 ubiquitin-protein ligase WWP2 A490H, O00308” it was -0.316 ± 0.078; in that of “NEDD4-like E3 ubiquitin-protein ligase WWP2 A490I, O00308”, 0.089 ± 0.077; in that of “NEDD4-like E3 ubiquitin-protein ligase WWP2 A490K, O00308”, 0.007 ± 0.037.

In the case of “NEDD4-like E3 ubiquitin-protein ligase WWP2 A490L, O00308”, the abundance fitness is -0.047 ± 0.037. With “NEDD4-like E3 ubiquitin-protein ligase WWP2 A490M, O00308”, the abundance fitness came to 0.033 ± 0.053.

“NEDD4-like E3 ubiquitin-protein ligase WWP2 A490N, O00308”: the abundance fitness is -0.195 ± 0.082.

Regarding “NEDD4-like E3 ubiquitin-protein ligase WWP2 A490P, O00308”, the abundance fitness is -0.128 ± 0.065. Substance “NEDD4-like E3 ubiquitin-protein ligase WWP2 A490Q, O00308” gave an abundance fitness of 0.029 ± 0.069.

On to “NEDD4-like E3 ubiquitin-protein ligase WWP2 A490R, O00308”, for which the abundance fitness is -0.047 ± 0.035. The substance “NEDD4-like E3 ubiquitin-protein ligase WWP2 A490S, O00308” showed an abundance fitness of -0.013 ± 0.048. In the case of “NEDD4-like E3 ubiquitin-protein ligase WWP2 A490V, O00308”, the abundance fitness is -0.05 ± 0.032.

“NEDD4-like E3 ubiquitin-protein ligase WWP2 A490W, O00308”: the abundance fitness was -0.185 ± 0.046. Next, “NEDD4-like E3 ubiquitin-protein ligase WWP2 A490Y, O00308”: -0.09 ± 0.061; “NEDD4-like E3 ubiquitin-protein ligase WWP2 D464A, O00308”: -0.797 ± 0.036. Regarding “NEDD4-like E3 ubiquitin-protein ligase WWP2 D464C, O00308”, the abundance fitness was -0.438 ± 0.074. In the case of “NEDD4-like E3 ubiquitin-protein ligase WWP2 D464E, O00308” it was -0.372 ± 0.047; in that of “NEDD4-like E3 ubiquitin-protein ligase WWP2 D464F, O00308”, -0.903 ± 0.12. In the case of “NEDD4-like E3 ubiquitin-protein ligase WWP2 D464I, O00308” it was -1.28 ± 0.14; in that of “NEDD4-like E3 ubiquitin-protein ligase WWP2 D464K, O00308”, -0.972 ± 0.11. “NEDD4-like E3 ubiquitin-protein ligase WWP2 D464N, O00308” came in with an abundance fitness of -0.138 ± 0.073. In the case of “NEDD4-like E3 ubiquitin-protein ligase WWP2 D464P, O00308” it was -0.921 ± 0.15; in that of “NEDD4-like E3 ubiquitin-protein ligase WWP2 D464Q, O00308”, -0.508 ± 0.075; in that of “NEDD4-like E3 ubiquitin-protein ligase WWP2 D464R, O00308”, -0.94 ± 0.041. In the case of “NEDD4-like E3 ubiquitin-protein ligase WWP2 D464S, O00308”, the abundance fitness is -0.565 ± 0.056. In the case of “NEDD4-like E3 ubiquitin-protein ligase WWP2 D464V, O00308”, the abundance fitness is -1.03 ± 0.061. “NEDD4-like E3 ubiquitin-protein ligase WWP2 D464W, O00308” had an abundance fitness of -1.21 ± 0.14. In the case of “NEDD4-like E3 ubiquitin-protein ligase WWP2 D464Y, O00308” it was -0.693 ± 0.12; in that of “NEDD4-like E3 ubiquitin-protein ligase WWP2 D474A, O00308”, -0.168 ± 0.037. “NEDD4-like E3 ubiquitin-protein ligase WWP2 D474C, O00308”: the abundance fitness was -0.288 ± 0.057. As for “NEDD4-like E3 ubiquitin-protein ligase WWP2 D474E, O00308”, the abundance fitness is -0.192 ± 0.074. Next, “NEDD4-like E3 ubiquitin-protein ligase WWP2 D474F, O00308”: -0.376 ± 0.086; “NEDD4-like E3 ubiquitin-protein ligase WWP2 D474H, O00308”: -0.095 ± 0.097.

“NEDD4-like E3 ubiquitin-protein ligase WWP2 D474I, O00308” had an abundance fitness of -0.069 ± 0.092.

With “NEDD4-like E3 ubiquitin-protein ligase WWP2 D474K, O00308”, the abundance fitness is -0.505 ± 0.14. Regarding “NEDD4-like E3 ubiquitin-protein ligase WWP2 D474L, O00308”, the abundance fitness was -0.326 ± 0.061. “NEDD4-like E3 ubiquitin-protein ligase WWP2 D474M, O00308” had an abundance fitness of -0.224 ± 0.063. With “NEDD4-like E3 ubiquitin-protein ligase WWP2 D474N, O00308”, the abundance fitness was -0.332 ± 0.065.

In the case of “NEDD4-like E3 ubiquitin-protein ligase WWP2 D474P, O00308”, the abundance fitness was -0.332 ± 0.085.

The substance “NEDD4-like E3 ubiquitin-protein ligase WWP2 D474Q, O00308” came in with an abundance fitness of -0.279 ± 0.073.

As to “NEDD4-like E3 ubiquitin-protein ligase WWP2 D474R, O00308”, the abundance fitness was -0.19 ± 0.039. The substance “NEDD4-like E3 ubiquitin-protein ligase WWP2 D474S, O00308” registered an abundance fitness of -0.406 ± 0.061. For the substance “NEDD4-like E3 ubiquitin-protein ligase WWP2 D474T, O00308”, the abundance fitness was -0.442 ± 0.079.

On to “NEDD4-like E3 ubiquitin-protein ligase WWP2 D474V, O00308”, for which the abundance fitness was -0.387 ± 0.067. With “NEDD4-like E3 ubiquitin-protein ligase WWP2 D474W, O00308”, the abundance fitness is -0.253 ± 0.048. “NEDD4-like E3 ubiquitin-protein ligase WWP2 D474Y, O00308” had an abundance fitness of -0.251 ± 0.097. In the case of “NEDD4-like E3 ubiquitin-protein ligase WWP2 D492A, O00308”, the abundance fitness was -0.174 ± 0.054.
